Consider 75 variants from the supplement of paper PMC7125110.

± gives the standard error. Fewer inactive variants are shown than the library holds.

To fix the notation:
B1: glmS ribozyme (parent)
chain: AUAAAAGCGCCAGAACUACAGAAAUGUAGUUGACGAGGAGGAGGUUUAUCGAAUUUUCGGCGGAUGCCUCCAAA

In the first series the parent is B1. In words: self-cleavage kobs at 2500 uM GlcN6P; higher = faster cleavage; RNA array. The following applies: with glucosamine-6-phosphate. An outline of the steps: (§1)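 Over ~14 h at 37 °C, tiles were imaged as glucosamine-6-phosphate (40 μM to 10 mM) in HEPES/KCl/Mg(OAc)2 buffer flowed across sequenced MiSeq chips. The chips carried barcoded ribozyme variants transcribed in situ by E. coli RNA polymerase and tracked with a hybridised Cy3 probe. After normalisation to baseline and to non-cleaving reference variants, one- or two-exponential decay fits of per-tile medians gave kobs. kcat and KM followed from weighted Michaelis–Menten fits across concentrations.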
For the variant G7C C11A C16U, the “self-cleavage kobs at 2500 uM GlcN6P” value was under 1e-05 s⁻¹.

A12U G13A G38U: the “self-cleavage kobs at 2500 uM GlcN6P” value is under 1e-05 s⁻¹.

For the variant A12U C16A U46C, the “self-cleavage kobs at 2500 uM GlcN6P” value came out at 0.000144 ± 4.6e-05 s⁻¹.

On to C16G G32U G66A, for which the “self-cleavage kobs at 2500 uM GlcN6P” value came out at 0.000109 ± 3.9e-05 s⁻¹.

With A39C G59A G63U, the “self-cleavage kobs at 2500 uM GlcN6P” value is under 1e-05 s⁻¹.

Turning to G29A G32C A64U, the “self-cleavage kobs at 2500 uM GlcN6P” value was under 1e-05 s⁻¹.

A12U A64G C67G: the “self-cleavage kobs at 2500 uM GlcN6P” value was 7.12e-05 ± 2.2e-05 s⁻¹.

Take C8A C10U G32A A48G: the “self-cleavage kobs at 2500 uM GlcN6P” value is under 1e-05 s⁻¹.

On to U54G C67G C70U C71U, for which the “self-cleavage kobs at 2500 uM GlcN6P” value was determined as 0.000105 ± 1.9e-05 s⁻¹.

As to A15U A39G A52G, the “self-cleavage kobs at 2500 uM GlcN6P” value was found to be 0.000162 ± 6.5e-05 s⁻¹.

Consider C16A U31C C70A, for which the “self-cleavage kobs at 2500 uM GlcN6P” value was under 1e-05 s⁻¹.

For G21U U30A, the “self-cleavage kobs at 2500 uM GlcN6P” value is 0.000247 ± 0.00012 s⁻¹.

As to G29C A53C C67U, the “self-cleavage kobs at 2500 uM GlcN6P” value worked out at 0.000153 ± 4.1e-05 s⁻¹.

A6G U31A: the “self-cleavage kobs at 2500 uM GlcN6P” value was 0.000107 ± 3.2e-05 s⁻¹.

Turning to A33C A52C, the “self-cleavage kobs at 2500 uM GlcN6P” value is under 1e-05 s⁻¹.

For the variant U31C G35A G66U C71A, the “self-cleavage kobs at 2500 uM GlcN6P” value was under 1e-05 s⁻¹.

As for A12U A42G A64U, the “self-cleavage kobs at 2500 uM GlcN6P” value was 6.81e-05 ± 2.1e-05 s⁻¹.

Regarding C16U G32C U54C, the “self-cleavage kobs at 2500 uM GlcN6P” value amounted to 5.6e-05 ± 2.1e-05 s⁻¹.

Turning to G35C A42U A48C G63U, the “self-cleavage kobs at 2500 uM GlcN6P” value is under 1e-05 s⁻¹.

With G7U G43C A53U A64G, the “self-cleavage kobs at 2500 uM GlcN6P” value was under 1e-05 s⁻¹.

In the case of C11U U54C G66U, the “self-cleavage kobs at 2500 uM GlcN6P” value turned out to be 9.68e-05 ± 3.4e-05 s⁻¹.

Consider A14C G40U U47C A53G C61A C70U, for which the “self-cleavage kobs at 2500 uM GlcN6P” value is under 1e-05 s⁻¹.

As for A33C G37U A42G G44U A64G G66U, the “self-cleavage kobs at 2500 uM GlcN6P” value was under 1e-05 s⁻¹.

As to C8U G43C A52U C70U, the “self-cleavage kobs at 2500 uM GlcN6P” value is under 1e-05 s⁻¹.

As for G7A G13A C34U, the “self-cleavage kobs at 2500 uM GlcN6P” value is under 1e-05 s⁻¹.

As for G29U U54A C70A, the “self-cleavage kobs at 2500 uM GlcN6P” value worked out at 6.05e-05 ± 3e-05 s⁻¹.

As to G7U A33U G35C G44C U45G G66U, the “self-cleavage kobs at 2500 uM GlcN6P” value is under 1e-05 s⁻¹.

Take C10A C16U A48U: the “self-cleavage kobs at 2500 uM GlcN6P” value was under 1e-05 s⁻¹.

For the variant C34A G35U U55G, the “self-cleavage kobs at 2500 uM GlcN6P” value is under 1e-05 s⁻¹.

Consider C34A U55G A64G, for which the “self-cleavage kobs at 2500 uM GlcN6P” value is under 1e-05 s⁻¹.

Regarding C8A G13C U65C, the “self-cleavage kobs at 2500 uM GlcN6P” value was under 1e-05 s⁻¹.

For the variant U55G C58U C70U, the “self-cleavage kobs at 2500 uM GlcN6P” value is 4.84e-05 ± 1.7e-05 s⁻¹.

Take G32C A33G A42U U45G U57C A64C C71A: the “self-cleavage kobs at 2500 uM GlcN6P” value was under 1e-05 s⁻¹.

As to G7C G32U U45C U49C, the “self-cleavage kobs at 2500 uM GlcN6P” value was under 1e-05 s⁻¹.

On to A39G A64G U69A, for which the “self-cleavage kobs at 2500 uM GlcN6P” value amounted to 0.00038 ± 0.00012 s⁻¹.

Take C50G U55C: the “self-cleavage kobs at 2500 uM GlcN6P” value is 3.57e-05 ± 1.6e-05 s⁻¹.

Regarding A15G U47G U57A C71G, the “self-cleavage kobs at 2500 uM GlcN6P” value turned out to be 5.79e-05 ± 2.3e-05 s⁻¹.

On to A36G G40C G59U, for which the “self-cleavage kobs at 2500 uM GlcN6P” value is under 1e-05 s⁻¹.

As for G29C G37A G43C U69A, the “self-cleavage kobs at 2500 uM GlcN6P” value is under 1e-05 s⁻¹.

Turning to G29C G40A A42U G60U C61U, the “self-cleavage kobs at 2500 uM GlcN6P” value was under 1e-05 s⁻¹.

As to G44U C67U C71U, the “self-cleavage kobs at 2500 uM GlcN6P” value amounted to 0.00069 ± 0.00025 s⁻¹.

On to A14G G29A C70G, for which the “self-cleavage kobs at 2500 uM GlcN6P” value turned out to be 0.000126 ± 4e-05 s⁻¹.

On to C10G G63C G66U, for which the “self-cleavage kobs at 2500 uM GlcN6P” value is under 1e-05 s⁻¹.

As to C34U G38U C50G, the “self-cleavage kobs at 2500 uM GlcN6P” value turned out to be 0.000215 ± 5.7e-05 s⁻¹.

Regarding A12G A52G G60C U65G, the “self-cleavage kobs at 2500 uM GlcN6P” value is under 1e-05 s⁻¹.

Regarding U57C U69C, the “self-cleavage kobs at 2500 uM GlcN6P” value was found to be 6.42e-05 ± 2.1e-05 s⁻¹.

As for C16U U46C U56C, the “self-cleavage kobs at 2500 uM GlcN6P” value stood at 0.000416 ± 7.9e-05 s⁻¹.

Take G32C G51U U56C: the “self-cleavage kobs at 2500 uM GlcN6P” value is under 1e-05 s⁻¹.

For the variant A15C A42G C70G, the “self-cleavage kobs at 2500 uM GlcN6P” value came to 7.41e-05 ± 1.9e-05 s⁻¹.

In the case of C34G G35A U49C, the “self-cleavage kobs at 2500 uM GlcN6P” value is under 1e-05 s⁻¹.

As for A15C U31C G41C U57G, the “self-cleavage kobs at 2500 uM GlcN6P” value is under 1e-05 s⁻¹.

As for C8G A12C A42U C68U, the “self-cleavage kobs at 2500 uM GlcN6P” value is under 1e-05 s⁻¹.

As for A1C U57C, the “self-cleavage kobs at 2500 uM GlcN6P” value was 9.88e-05 ± 2.4e-05 s⁻¹.

Consider A6G A14C A48G, for which the “self-cleavage kobs at 2500 uM GlcN6P” value was under 1e-05 s⁻¹.

In the case of G35C G60U C67A, the “self-cleavage kobs at 2500 uM GlcN6P” value was under 1e-05 s⁻¹.

In the case of A52C G59C A64U, the “self-cleavage kobs at 2500 uM GlcN6P” value is under 1e-05 s⁻¹.

Turning to C34U U47A G59U A64C C70U, the “self-cleavage kobs at 2500 uM GlcN6P” value is under 1e-05 s⁻¹.

For G29A G38U G40A A42C, the “self-cleavage kobs at 2500 uM GlcN6P” value is under 1e-05 s⁻¹.

For the variant A14U G32U C71A, the “self-cleavage kobs at 2500 uM GlcN6P” value was 4.64e-05 ± 2e-05 s⁻¹.

For the variant C16G C34U A36C, the “self-cleavage kobs at 2500 uM GlcN6P” value was under 1e-05 s⁻¹.

C10U G32A C70U: the “self-cleavage kobs at 2500 uM GlcN6P” value is 6.3e-05 ± 3e-05 s⁻¹.

Take A12G A39C G51U U56A: the “self-cleavage kobs at 2500 uM GlcN6P” value was under 1e-05 s⁻¹.

On to C11G U56G G59U, for which the “self-cleavage kobs at 2500 uM GlcN6P” value amounted to 4.72e-05 ± 2e-05 s⁻¹.

On to C11A A12U G40U, for which the “self-cleavage kobs at 2500 uM GlcN6P” value stood at 4.18e-05 ± 2.1e-05 s⁻¹.

In the case of A14G U55G U69A, the “self-cleavage kobs at 2500 uM GlcN6P” value amounted to 0.000475 ± 8.8e-05 s⁻¹.

For the variant G37C G60C C67A, the “self-cleavage kobs at 2500 uM GlcN6P” value was under 1e-05 s⁻¹.

Turning to A6G A14U U45C, the “self-cleavage kobs at 2500 uM GlcN6P” value was under 1e-05 s⁻¹.

Turning to A15G C50G, the “self-cleavage kobs at 2500 uM GlcN6P” value was 8.29e-05 ± 3.5e-05 s⁻¹.

Turning to A6U G44U G63C, the “self-cleavage kobs at 2500 uM GlcN6P” value is under 1e-05 s⁻¹.

In the case of U30C G44A G66U, the “self-cleavage kobs at 2500 uM GlcN6P” value is under 1e-05 s⁻¹.

As to G32C A33G U47A U54C A64C C71U, the “self-cleavage kobs at 2500 uM GlcN6P” value is under 1e-05 s⁻¹.

As for A14C G60U C68U, the “self-cleavage kobs at 2500 uM GlcN6P” value was under 1e-05 s⁻¹.

Variants of B1 are the subject of another series. In words: self-cleavage kobs at 640 uM GlcN6P; higher = faster cleavage; RNA array. The following applies: with glucosamine-6-phosphate. An outline of the steps: as §1
As to U45G U46A U57G, the “self-cleavage kobs at 640 uM GlcN6P” value was under 1e-05 s⁻¹.

In the case of G21U U30A, the “self-cleavage kobs at 640 uM GlcN6P” value worked out at 0.00112 ± 0.00029 s⁻¹.

Regarding A33C A52C, the “self-cleavage kobs at 640 uM GlcN6P” value is under 1e-05 s⁻¹.

Turning to G32C A33G A42U U45G U57C A64C C71A, the “self-cleavage kobs at 640 uM GlcN6P” value was under 1e-05 s⁻¹.

On to G44U C67U C71U, for which the “self-cleavage kobs at 640 uM GlcN6P” value amounted to 0.00022 ± 6.3e-05 s⁻¹.

In the case of C34U A39C C50G, the “self-cleavage kobs at 640 uM GlcN6P” value was under 1e-05 s⁻¹.

As for C16A G59U G60A, the “self-cleavage kobs at 640 uM GlcN6P” value is under 1e-05 s⁻¹.

As for G32C A33G U47A U54C A64C C71U, the “self-cleavage kobs at 640 uM GlcN6P” value was under 1e-05 s⁻¹.

Variants of B1 are the subject of the next series. Put plainly: self-cleavage kobs at 10000 uM GlcN6P; higher = faster cleavage; RNA array. The following applies: with glucosamine-6-phosphate. An outline of the steps: as §1
For the variant A12U C16A U46C, the “self-cleavage kobs at 10000 uM GlcN6P” value came out at 0.000331 ± 7.6e-05 s⁻¹.

Consider C16G G32U G66A, for which the “self-cleavage kobs at 10000 uM GlcN6P” value is 0.000209 ± 5.7e-05 s⁻¹.

Consider A15U A39G A52G, for which the “self-cleavage kobs at 10000 uM GlcN6P” value worked out at 0.000571 ± 0.00013 s⁻¹.

For G21U U30A, the “self-cleavage kobs at 10000 uM GlcN6P” value was found to be 0.00354 ± 0.00075 s⁻¹.

As for A6G U31A, the “self-cleavage kobs at 10000 uM GlcN6P” value stood at 0.000258 ± 6e-05 s⁻¹.

For the variant A15C A42G C70G, the “self-cleavage kobs at 10000 uM GlcN6P” value is 4.12e-05 ± 1.7e-05 s⁻¹.

Turning to G29A G38U G40A A42C, the “self-cleavage kobs at 10000 uM GlcN6P” value is under 1e-05 s⁻¹.

Turning to A14U G32U C71A, the “self-cleavage kobs at 10000 uM GlcN6P” value worked out at 7.15e-05 ± 2.1e-05 s⁻¹.

C11A A12U G40U: the “self-cleavage kobs at 10000 uM GlcN6P” value came to 6.34e-05 ± 1.6e-05 s⁻¹.

Take A14G U55G U69A: the “self-cleavage kobs at 10000 uM GlcN6P” value was determined as 0.000104 ± 2.4e-05 s⁻¹.
